± gives the uncertainty stated by the source.
Assay: amyloid nucleation score (Sup35N fusion, yeast selection) (log enrichment); library NNK1; higher = more nucleation; inactive = no reads after selection
In short: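 Sup35N was fused to peptides of 20 random codons and expressed in psi-negative yeast, which were induced with 100 μM copper sulfate for 24 hours and then grown on medium lacking adenine and uracil for 7 days at 30°C. Plasmid inserts from input and output were sequenced on Illumina. The nucleation score is the DiMSum log enrichment of output over input reads, centred on the mode score of non-aggregating sequences. Sequences with under 100 input reads were left out, and random libraries had three technical output replicates.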

Substance | amyloid nucleation score
SRTYPVDMFPMSLKLSINVL | -0.125 ± 0.79
RSFVSEGYFGCWDRDTDYTD | -0.894 ± 1.2
MHLCINWSLSCRAADQFMRR | 3.53 ± 0.17
ECDYDYGTSWSQVSYVRGV | -0.773 ± 1.2
AFAFEYCRTSRIFCQGMEWQ | 1.05 ± 0.6
NFVIFKRFFNFHKNWNGWSR | 3.8 ± 0.07
KRMDKPWTPGYTAMHWVDNM | 0.612 ± 0.52
TYPYYVTVGGIS | 0.113 ± 0.43
HNIKVAGQMYANKSRICTSM | 0.412 ± 0.47
HVPSFRFFFRDNLI | 0.385 ± 0.46
LYFVCIFPYRVRTECSEQSR | 4.32 ± 0.095
LNICCEEYQDRYTTDNFLLL | 0.583 ± 0.57
IGFML | 1.69 ± 0.32
VNWFTR | 0.582 ± 0.56
ILSWSNSGRMNHRPLVYERS | 0.963 ± 0.43
FDRMNCALGVPLWDALKDGS | 3.4 ± 0.14
YIIVFDVNWFVKFGCFPRGS | inactive
SNDVAFMAIKKHRTLSYQTD | 0.165 ± 0.47
VDLDSVR | -0.236 ± 0.48
VAACLKNMIESVQSVKYIWR | 0.837 ± 0.93
GREMYRLLHLNVEYTHGTRY | 3.79 ± 0.075
YVFSLVSESLQIIYHPLLLL | -0.189 ± 0.41

Substance | amyloid nucleation score
YGCVCGSDNTHWNYMLVNNH | 7.222 ± 0.051
WNYIEGASFSRMGEASNAPG | -0.944 ± 1.2
MCVLYMGGSFRF | 1.58 ± 0.44
CVTAVIRDGWGWNYCCRDHR | inactive
LLNQFLTRSASYTRGTESID | 0.295 ± 0.24
MNLSYSTIVIYHRNEDCNVY | 4.08 ± 0.094
KAFATMLNRLEVGTLGRG | -1.36 ± 1.9
NVVSYFHMAFGWCFNLW | 1.94 ± 0.26
VYRDLVDAYVTDYMCWGAPG | inactive
SLVALINNCSVSTKMGSLPY | 0.87 ± 0.22
FLSLFVSVV | -0.18 ± 0.97
PLHCSVGRIRSGLMCLKLTC | -0.17 ± 1.1
WWDHVWGVR | 0.31 ± 0.75
NGTWYILSQASFFYELDAYC | -0.012 ± 0.43
VSRWSGEEPISCSYGTLR | -0.164 ± 0.6
SNPTYLWVVLLVRSAALRMD | inactive
CFNMFT | -0.607 ± 0.76
TFLEIKVRD | -0.496 ± 0.19
LLLSILRWDEDMMLNFW | 1.21 ± 0.43
FRWTLTSLRSVNDFSG | 0.948 ± 0.65
DCKLGISGIDLVNRFLYPCM | 1.33 ± 0.84
TLLELLCEWNTVHKGSP | 0.699 ± 0.3

Substance | amyloid nucleation score
SVNTPTGSIFEICQYDSIKG | -0.302 ± 0.45
DYVHFMCHGLGR | -0.185 ± 0.63
SYVKDNISVSGADILTGAIC | -0.367 ± 0.48
LNNLWNLGLTGLQGGNMYKI | inactive
GFAWYDYMLQYIVVLVGLYN | -0.159 ± 1.4
FSFLHLVGRWGLIVSNCSDV | -0.355 ± 0.64
DMEYGGKRHNNCSDLIITNC | -0.726 ± 1.1
FVMLFRFRVVCRFV | inactive
VYYLIVHLHSGMLHQIVELS | 0.707 ± 0.51
HSGSAE | -1.28 ± 1.3
HRQLWC | -1.96 ± 2.1
RVTVTLFYMFNNRGEGKSQA | 3.44 ± 0.12
TSRNW | -0.626 ± 1.1
FDYPDGDVVVNKFDSDVCYR | 0.616 ± 0.84
CSGNRMDPLTVRLFVGLGIL | 0.347 ± 0.43
TEDPYSGPILKEPVDLCWLE | 0.494 ± 0.74
VSIRTGGTCHYT | 0.123 ± 0.28
MRIPVRLVV | 0.027 ± 0.54
ASEVCKY | 0.375 ± 0.79
TSVDVFS | 0.656 ± 0.62
SFREHGRSSNRP | 0.423 ± 1.4
TSRALRREIARLKAYGSMMV | inactive

Substance | amyloid nucleation score
SFLLYGLFAYVSAYIRDICA | -0.166 ± 0.38
STYPLEEYKGSGCLAG | -0.522 ± 0.39
YVSYRIVLGRMPGMKHSRKR | 3.6 ± 0.088
IYRFQWPWDMLMYCWTLMSV | -0.776 ± 0.93
AYCLRN | 0.211 ± 0.68
KRCSYRS | 0.07 ± 0.6
LRAHGAYRYQWEACCHNLG | -0.138 ± 0.36
NKSHAHLKVAMSLVCPFKSH | 1.5 ± 0.44
MHPAVVYCPLIK | 0.735 ± 0.64
CLETACRILGFCN | -0.488 ± 0.21
EMFHVVGSRLMPVRMVRNQC | inactive
SGYLRKRYTRRDC | inactive
WYGVFALMIGRSIFD | -0.027 ± 0.27
ILSFMYYDTHAPLKFAVQVK | 0.296 ± 0.45
GFVILDSNPLRFNCFWVDAF | 0.325 ± 0.29
TFVVN | 0.677 ± 0.3
CIDYYLCLNMYRTGWYLRLC | inactive
SFYCSHEVYLCNALYIDRVR | 3.67 ± 0.098
IVFLKLWEQVGWTVIDNLGV | -0.552 ± 1.4
RTCDIRSLHPTTEGSETCGR | 0.306 ± 0.56

From the supplement of paper PMC12042874
